In PMC6906691:

How the values were obtained:
Experiment in all cases: chemical modification
Conditions in all cases: 37 °C, added salt not given, universal pH buffer: 5 mM CHES, 5 mM HEPES, 5 mM MES, degassed and charged with nitrogen
[1] = molecular target: Cys3 (position 3, ---KKCPYSAA)
[2] = molecular target: Cys3 (position 3, ---KKCPYSAD)
[3] = molecular target: Cys3 (position 3, ---YGCAAAAA)
[4] = molecular target: Cys3 (position 3, ---YGCPAADA)
[5] = molecular target: Cys3 (position 3, ---GGCPYADA)
[6] = molecular target: Cys3 (position 3, ---RRCPYSDA)
[7] = molecular target: Cys3 (position 3, ---YGCAAADA)
[8] = molecular target: Cys3 (position 3, ---KKCPYSDA)
[9] = free peptide, 2-4Zn(II) absent. Peptide-a of this series, which lacks Cys, is described as a random coil without zinc complex.
[10] = peptide (4 µM) in binding complex with the tetranuclear zinc complex 2-4Zn(II) (14 µM), alpha-helical conformation induced by the complex

KKCPYSAADAAADAAADAAAD [peptide-k (helixD2-tag peptide) (synthetic construct)] was tested, and the pKa [1, 9] was 7.95 and the pKa [1, 10] was 7.14.

KKCPYSADAAADAAADAAAD [peptide-j (synthetic construct)] gave a pKa [2, 9] of 7.94 and a pKa [2, 10] of 7.08.

YGCAAAAAADDDDGDDDD [peptide-i (D4-tag peptide) (synthetic construct)] gave a pKa [3, 9] of 8.96 and a pKa [3, 10] of 8.22.

YGCPAADAAADAAADAAAD [peptide-f (synthetic construct)] showed a pKa [4, 9] of 8.93 and a pKa [4, 10] of 7.80.

Protein GGCPYADAAADAAADAAAD [peptide-e (Cys-Pro-Tyr-Ala glutaredoxin-mimicking tag peptide) (synthetic construct)] has a pKa [5, 9] of 8.48 and a pKa [5, 10] of 7.46.

RRCPYSDAAADAAADAAAD [peptide-h (synthetic construct)] showed a pKa [6, 9] of 8.02 and a pKa [6, 10] of 7.18.

YGCAAADAAADAAADAAAD [peptide-d (Asp-rich alpha-helical tag peptide) (synthetic construct)] showed a pKa [7, 9] of 8.89 and a pKa [7, 10] of 7.94.

With KKCPYSDAAADAAADAAAD [peptide-g (synthetic construct)] the pKa [8, 9] was 8.04 and the pKa [8, 10] was 7.13.
